Measured values published in patent US20230068663A1 (University of Texas, published 2023).

B1: B2-19 (antibody, V domains shown)
VH: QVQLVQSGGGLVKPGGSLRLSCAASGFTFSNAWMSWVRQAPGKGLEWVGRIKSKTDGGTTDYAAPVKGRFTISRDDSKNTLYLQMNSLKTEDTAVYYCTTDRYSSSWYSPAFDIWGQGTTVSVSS
VL: QPVLTQPPSVSEAPRQRVTISCSGSSSNIGNNVVNWYQQLPGKAPKLLIYYDDLLPSGVSDRFSGSKSGTSASLAISGLQSEDEADYYCATWDDSLNGPVFGGGTKLTVL
notes: also called B2-19_HC; B2-19_LC
B2: B2-16 (antibody, V domains shown)
VH: QVQLVQSGAEVKKPGSSVKVSCKASGGTFSSYAISWVRQAPGQGLEWMGGIIPIFGTANYAQKFQGRVTITADESTSTAYMELSSLRSEDTAVYYCASGIIPDNPYGMDVWGQGTMVSVSS
VL: DIVMTQSPLSLPVTLGQPASISCTSSQSLVYSDGNTYLNWFHQRPGQSPRRLFYKVSNRASGVPDRFSGSGSGTDFTLKISRVEAEDLGVYYCMQGTHWPVTFGQGTRLEIK
notes: also called B2-16_HC; B2-16_LC
B3: B2-7 (antibody, V domains shown)
VH: EVQLVESGGGVVQPGRSLRLSCAASGFTISSYGMHWVRQAPGKGLEWVAVISYDGSNKYYADSVKGRFTISRDNSKNTLYLQMNSLRVEDTAVYYCAKDLLLRYFDWSPKYYYNGMDVWGQGTMVTVSS
VL: QSVLTQPPSVSVAPGKTARITCGGNNIGSKSVHWYQQKPGQAPVLVVYDDSDRPSGIPERFSGSNSGNTATLTISRVEAGDEADYYCQVWDSSSDHPGVFGTGTKVTVL
notes: also called B2-7_HC; B2-7_LC
B4: B2-15 (antibody, V domains shown)
VH: EVQLVQSGAEVKKSGASVKVSCKSSGYTFTNYGISWVRQAPGQGLEWMGWISGDAGDTKFAQKFQGRVTMTTDTSTTTTYMELRSLRSDDTAVYYCARDGEYIPMFRGFDNYYGLDVWGQGTLVSVSS
VL: QSVLTQPPSASATPGQRVTISCSGRNANIGSNPVNWYQQLPGTAPRLVMYSNNQRPSGVPDRFSGSKSGTSASLAISGLQSEDEADYYCEGWDDSLNGYVFGTGTKVTVL
notes: also called B-15; B2-15_HC
B5: B2-17 (antibody, V domains shown)
VH: EVQLLDSGPRLLKPSETLSLTCGVSGVSTSSTHWWSWVRQTPGKGLEWIGEILHNGNTNSNPSLKSRVSMSIDKSRNQFSLQLKSMTAADTAVYYCASASPNWGASGAFDAWAQGTMVTVSS
VL: QSVLTQPPSASATPGQRVTISCSGSSSNIGSNPVNWYQQVPGMAPELVMYSDNQRPSGVPDRFSGSNSGTSASLAISGLQSEDEADYYCSTWDDSLNGLVFGTGTKVTVL
notes: also called B2-17_HC; B2-17_LC

What was measured:
[1] = target: LILRB2 chimeric receptor on LILRB2 reporter cells (extracellular domain of LILRB2 fused with … (UniProt Q8N423 22-460)); experiment: cell-based or functional assay
[2] = target: T1, LILRB2 (antigen in solution, Octet RED 96) (UniProt Q8N423 22-460, limits assumed); experiment: BLI (Octet RED 96), antibody on protein A biosensor, LILRB2 in solution
T1 construct: also called LILRB2 solution
Method: Affinity measurement of blocking antibodies. Affinities of the 5 blocking antibodies were measured on Octet RED 96 system.

[3] = target: T2, full length human LILRB2 stably expressed on HEK293 cells (human, UniProt Q8N423 22-597); experiment: flow cytometry, HEK293 cells expressing full length human LILRB2
T2 construct: whole, on cells; also called HEK293_LILRB2
Method: FIG. 31. Binding of LILRB2 antibodies on HEK293 stably expressing full length human LILRB2. Fifty thousand cells were incubated with a dilution series (40-0.0006 μg/mL) of LILRB2 antibodies in a final volume of 100 μL. Bound antibodies were detected with anti-human Fc-specific secondary antibody conjugated to AF647. All incubations were performed for 30 minutes at 4° C. Data shown is averaged geometric mean fluorescence intensity ± standard error of the mean (s.e.m.) after sample acquisition (in duplicates) in flow cytometer (BD FACS Celesta) and subtracted by background fluorescence of samples incubated with secondary antibody only.

[4] = target: T3, endogenous LILRB2 on human myeloid cells / primary monocytes (human, UniProt Q8N423 22-597); experiment: flow cytometry, CD14+CD16- monocytes, AF647-conjugated antibody
T3 construct: whole, on cells; also called cells expressing endogenous LILRB2
Method: FIG. 32. Binding of LILRB2 antibodies on CD14⁺CD16-monocytes isolated from human PBMC from healthy donors. Fifty thousand cells were incubated for 30 minutes at 4° C. with a dilution series (40-0.0006 μg/mL) of LILRB2 antibodies directly conjugated to AF647 in a final volume of 100 μL. Data shown is averaged geometric mean of fluorescence intensity from duplicate samples acquired in a flow cytometer (BD FACS Celesta) from one donor and is representative of 2 experiments with cells isolated from different donors.

Row | Binder | Blocking potency (IC50) of GFP expression in LILRB2 reporter cells induced by coated ANGPTL2 [1] [µg/mL] | Kd [2] [nM] | koff [2] [s⁻¹] | kon [2] [M⁻¹ s⁻¹] | EC50 [3] [µg/mL] | EC50 [4] [µg/mL]
1 | B1 | 0.0485 | 1.84 | 0.00046 | 250000 | 0.208 | 0.219
2 | B2 | 0.131 | 7.45 | 0.0009 | 121000 | 0.277 | 0.547
3 | B3 | 0.221 | 15.2 | 0.00305 | 200000 | 0.212 | 0.332
4 | B4 | 0.341 | 18.9 | 0.00565 | 299000 | 0.101 | 0.056
5 | B5 | 0.405 | 35.9 | 0.0121 | 338000 | 0.105 | > 10
